Source: patent publication US20100273988A1 (Chugai, published 2010)

Columns and labels:
[1] = target: proHB-EGF mutated at the protease cleavage site, expressed on Ba/F3 cells (HB-EGF_Ba/F3) (human) (UniProt Q99075); experiment: flow cytometry, hybridoma culture supernatant on HB-EGF_Ba/F3 cells, FITC-anti-mouse IgG; EXP. 2 (no-mAb control 6.9)
[2] = target: HB-EGF protein (R&D Systems, Inc., 259-HE) (human, UniProt Q99075 63-148); experiment: cell-based or functional assay
[3] = target: proHB-EGF mutated at the protease cleavage site, expressed on Ba/F3 cells (HB-EGF_Ba/F3) (human) (UniProt Q99075); experiment: flow cytometry, hybridoma culture supernatant on HB-EGF_Ba/F3 cells, FITC-anti-mouse IgG; EXP. 1 (no-mAb control 19.1)

Chain of proHB-EGF mutated at the protease cleavage site, expressed on Ba/F3 cells (HB-EGF_Ba/F3) (human) (Q99075 20-208 limits assumed, change not shown): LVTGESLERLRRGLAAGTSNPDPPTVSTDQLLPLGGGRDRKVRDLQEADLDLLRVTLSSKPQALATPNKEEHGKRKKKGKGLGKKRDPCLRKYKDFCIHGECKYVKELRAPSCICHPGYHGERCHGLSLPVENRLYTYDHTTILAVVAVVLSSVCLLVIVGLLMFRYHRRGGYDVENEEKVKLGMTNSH
Chain of HB-EGF protein (R&D Systems, Inc., 259-HE) (Q99075 63-148 limits assumed): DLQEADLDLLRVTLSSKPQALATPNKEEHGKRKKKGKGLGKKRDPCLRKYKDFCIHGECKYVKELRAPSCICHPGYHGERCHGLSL

B1: HC-15 (antibody, V domains shown)
VH: EVQLQQSGPELVKPGASVKISCKASGYSFTGYYMHWVKQSPEKRLEWIGEINPRTGITTYNQKFKAKATLTVDKSSSTAYMQLKSLTSEDSAVYYCARVGSSGPFTYWGQGTLVTVSA
VL: DIVMTQSPSSLSVSAGDKVTMSCKSSQSLLNSRNQKNYLAWYQQKPWQPPKLLIYGASTRESGVPDRFTGSGSGTDFTLTISSVQAEDLAVYYCQNDYSYPFTFGTGTKLEIK
With B1 the FACS (GEO-mean) [1] was 234 GEO-mean, the “EC50 (nM) of the growth-inhibiting effect on EGFR_Ba/F3 cells in the presence of HB-EGF (80 ng/mL)” value [2] was 3.8 nM and the FACS (GEO-mean) [3] was 594 GEO-mean.
